The values that follow come from paper PMC6237275 (Chemical science, 2013).

The target of the experiment is His–CtBP2 (UniProt P56545 1-445). Nature of the experiment: ELISA. On the technique in general: ELISA stands for enzyme-linked immunosorbent assay.

The IC50 is the midpoint of a concentration-inhibition curve.

B1: CP61 (cyclo-SGWTVVRMY) (peptide)
peptide: SGWTVVRMY
modifications: cyclic peptide (cyclo-SGWTVVRMY)
B1 returned an IC50 of 19 ± 4 µM.
